We go through four molecules from article PMC10467612 (RSC Chemical Biology, 2023).

In general, Km refers to the substrate concentration at which the rate is half of its maximum. The term kcat denotes the maximal rate divided by the concentration of active sites. By kcat/Km is commonly meant the second-order rate constant that governs catalysis at low substrate concentration. In general, Kd refers to a measure of binding affinity in units of concentration. A low value points to tighter binding.

One data set relates to NC(Cc1cccc(F)c1)C(=O)O. The data set is described as follows: adenylation saturation kinetics. Type of data set: biochemical, Aneurinibacillus migulanus. To be noted: ATP A-domain binding pocket enlarged by W239S.
The test system of another data set is NC(Cc1ccccc1F)C(=O)O. The data set is described as follows: adenylation saturation kinetics. Type of data set: biochemical, Aneurinibacillus migulanus. Conditions: ATP A-domain binding pocket enlarged by W239S.
The next data set deals with T1, GrsA (Aneurinibacillus migulanus, UniProt P0C061).
T1 sequence (P0C061 1-428 limits assumed): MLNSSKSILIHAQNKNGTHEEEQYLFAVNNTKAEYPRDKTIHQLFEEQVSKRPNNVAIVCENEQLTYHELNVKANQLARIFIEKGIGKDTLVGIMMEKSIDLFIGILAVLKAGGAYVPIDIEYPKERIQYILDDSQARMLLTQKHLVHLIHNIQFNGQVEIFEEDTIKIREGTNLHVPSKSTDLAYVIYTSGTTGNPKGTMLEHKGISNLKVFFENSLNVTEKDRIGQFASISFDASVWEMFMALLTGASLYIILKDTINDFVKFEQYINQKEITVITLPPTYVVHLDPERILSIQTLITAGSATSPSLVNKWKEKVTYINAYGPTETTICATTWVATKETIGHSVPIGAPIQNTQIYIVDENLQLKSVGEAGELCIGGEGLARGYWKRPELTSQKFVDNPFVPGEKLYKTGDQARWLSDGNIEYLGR
The data set can be described thus: isothermal titration calorimetry. Type of data set: binding. (In general: In ITC the heat of successive injections is recorded.)

Substrate in data set [1]: CC(C)(F)C(N)C(=O)O
The data set can be described thus: adenylation saturation kinetics. Type of data set: biochemical, Bacillus subtilis. Conditions: ATP.

Substrate in data set [2]: CC(C)C(N)C(=O)O
The data set can be described thus: adenylation saturation kinetics. The class given is biochemical, Bacillus subtilis. Conditions: ATP.

Substrate in data set [3]: NC(Cc1cc(F)cc(F)c1)C(=O)O
The data set can be described thus: adenylation saturation kinetics. The class given is biochemical, Aneurinibacillus migulanus. To be noted: ATP A-domain binding pocket; T-shaped aromatic interaction with Trp239.

Substrate in data set [4]: NC(Cc1cccc(F)c1)C(=O)O
The data set can be described thus: adenylation saturation kinetics. The class given is biochemical, Aneurinibacillus migulanus. Conditions: ATP A-domain binding pocket; T-shaped aromatic interaction with Trp239.

Substrate in data set [5]: NC(Cc1ccccc1F)C(=O)O
The data set is described as follows: adenylation saturation kinetics. Conditions: ATP A-domain binding pocket; T-shaped aromatic interaction with Trp239. Type of data set: biochemical, Aneurinibacillus migulanus.

In the case of “GrsA-W239S (Aneurinibacillus migulanus; W239S)”, in the data set with NC(Cc1cccc(F)c1)C(=O)O, the Michaelis constant (Km) came out at 900 ± 100 µM, the catalytic constant (kcat) was found to be 0.233 ± 0.0167 s⁻¹ and the kcat/Km is 250 M⁻¹ s⁻¹. Besides, in the data set on NC(Cc1ccccc1F)C(=O)O, the Km came to 3000 ± 1000 µM, the kcat was 0.667 ± 0.167 s⁻¹ and the kcat/Km came to 267 M⁻¹ s⁻¹.
With `NC(Cc1ccccc1)C(=O)O` (racemic) [Phe], the Kd at GrsA was determined as 60 ± 10 µM.

B1: SrfA-B1 (Bacillus subtilis subsp. subtilis str. 168) (protein)
chain: ASTAVVYEGTKLTYRELNAAANRLARKLVEHGLQKGETAAIMNDRSVETVVGMLAVLKAGAAYVPLDPALPGDRLRFMAEDSSVRMVLIGNSYTGQAHQLQVPVLTLDIGFEESEAADNLNLPSAPSDLAYIMYTSGSTGKPKGVMIEHKSILRLVKNAGYVPVTEEDRMAQTGAVSFDAGTFEVFGALLNGAALYPVKKETLLDAKQFAAFLREQSITTMWLTSPLFNQLAAKDAGMFGTLRHLIIGGDALVPHIVSKVKQASPSLSLWNGYGPTENTTFSTSFLIDREYGGSIPIGKPIGNSTAYIMDEQQCLQPIGAPGELCVGGIGVARGYVNLPELTEKQFLEDPFRPGERIYRTGDLARWLPDGNIEFLGRIDNQVKVRGFRIELGEIETKLNMAEHVTEAAVIIRKNKADENEICAYFTADREVAVSELRKTLSQSLPDYMVPAHLIQMDSLPLTPNGKINKKELPAPQSEAVQ
On to B1, for which, in data set [1], the Km worked out at 8000 ± 1000 µM, the kcat was 0.467 ± 0.05 s⁻¹ and the kcat/Km worked out at 58.3 M⁻¹ s⁻¹. In data set [2], the Km turned out to be 60 ± 20 µM, the kcat amounted to 0.133 ± 0.0333 s⁻¹ and the kcat/Km is 2330 M⁻¹ s⁻¹.

B2: GrsA (Aneurinibacillus migulanus) (protein)
chain: MLNSSKSILIHAQNKNGTHEEEQYLFAVNNTKAEYPRDKTIHQLFEEQVSKRPNNVAIVCENEQLTYHELNVKANQLARIFIEKGIGKDTLVGIMMEKSIDLFIGILAVLKAGGAYVPIDIEYPKERIQYILDDSQARMLLTQKHLVHLIHNIQFNGQVEIFEEDTIKIREGTNLHVPSKSTDLAYVIYTSGTTGNPKGTMLEHKGISNLKVFFENSLNVTEKDRIGQFASISFDASVWEMFMALLTGASLYIILKDTINDFVKFEQYINQKEITVITLPPTYVVHLDPERILSIQTLITAGSATSPSLVNKWKEKVTYINAYGPTETTICATTWVATKETIGHSVPIGAPIQNTQIYIVDENLQLKSVGEAGELCIGGEGLARGYWKRPELTSQKFVDNPFVPGEKLYKTGDQARWLSDGNIEYLGRIDNQVKIRGHRVELEEVESILLKHMYISETAVSVHKDHQEQPYLCAYFVSEKHIPLEQLRQFSSEELPTYMIPSYFIQLDKMPLTSNGKIDRKQLPEPDLTFGMRVDYEAPRNEIEETLVTIWQDVLGIEKIGIKDNFYALGGDSIKAIQVAARLHSYQLKLETKDLLKYPTIDQLVHYIKDSKRRSEQGIVEGEIGLTPIQHWFFEQQFTNMHHWNQSYMLYRPNGFDKEILLRVFNKIVEHHDALRMIYKHHNGKIVQINRGLEGTLFDFYTFDLTANDNEQQVICEESARLQNSINLEVGPLVKIALFHTQNGDHLFMAIHHLVVDGISWRILFEDLATAYEQAMHQQTIALPEKTDSFKDWSIELEKYANSELFLEEAEYWHHLNYYTENVQIKKDYVTMNNKQKNIRYVGMELTIEETEKLLKNVNKAYRTEINDILLTALGFALKEWADIDKIVINLEGHGREEILEQMNIARTVGWFTSQYPVVLDMQKSDDLSYQIKLMKENLRRIPNKGIGYEIFKYLTTEYLRPVLPFTLKPEINFNYLGQFDTDVKTELFTRSPYSMGNSLGPDGKNNLSPEGESYFVLNINGFIEEGKLHITFSYNEQQYKEDTIQQLSRSYKQHLLAIIEHCVQKEDTELTPSDFSFKELELEEMDDIFDLLADSLT
As for B2, the Km in data set [3] came out at 14 ± 3 µM; in data set [4] it was 14 ± 5 µM; in data set [5] it was 20 ± 2 µM. The kcat in data set [3] worked out at 0.517 ± 0.0333 s⁻¹; in data set [4], 0.35 ± 0.0333 s⁻¹; in data set [5], 0.458 ± 0.0133 s⁻¹. The kcat/Km in data set [3] is 36700 M⁻¹ s⁻¹; in data set [4], 25000 M⁻¹ s⁻¹; in data set [5], 23300 M⁻¹ s⁻¹.
